Source: PMC7876548, “Methylation of the D2 dopamine receptor affects binding with the human regulatory proteins Par-4 and Calmodulin” (microPublication Biology, 2021)
Square brackets hold non-standard residues; d marks the D form. Ends that are not written are not given here. * marks the point of attachment. K(5-FAM) = lysine labeled with 5-carboxyfluorescein (5-FAM), C-terminal, O=C(NCCCC[C@H](N*)C(=O)O)c1ccc2c(c1)C(=O)OC21c2ccc(O)cc2Oc2cc(O)ccc21; Arg(Me2s) = CN=C(NC)NCCC[C@H](N)C(=O)O

B1: methylated D2 peptide (amino acids 208-243 of the human D2 receptor, symmetrically dimethylated at Arg 217 and Arg 219) (peptide)
peptide: VYIKIYIVL[Arg(Me2s)]R[Arg(Me2s)]RKRVNTKRSSRAFRAHLRAPLKGN-{K(5-FAM)}
notes: D2 dopamine receptor, human, amino acids 208-243 of the third intracellular loop; Same peptide as m1 but with symmetric dimethylarginine at 217 and 219; The C-terminal fluorophore is carried on an added lysine (K-5-FAM); source: synthetic peptide (21st Century Biochemicals); not shown: FLAG, N-terminal, kept
B2: unmethylated D2 peptide (amino acids 208-243 of the third intracellular loop of the human D2 receptor) (peptide)
peptide: VYIKIYIVLRRRRKRVNTKRSSRAFRAHLRAPLKGN-{K(5-FAM)}
notes: D2 dopamine receptor, human, amino acids 208-243 of the third intracellular loop; The C-terminal fluorophore is carried on an added lysine (K-5-FAM) after residue 243; source: synthetic peptide (21st Century Biochemicals); not shown: FLAG, N-terminal, kept

Biological target: T1, human calmodulin (human, UniProt P0DP23 1-149)
T1 construct: Calmodulin, human; in pET-17b; Purification adapted from McCluskey et al. 2007; also called CaM; His-Calmodulin; source: Rosetta E. coli, purified (Ni-NTA, Phenyl-sepharose)
Test: fluorescence polarisation; anisotropy; fluorescently labelled D2 peptide at 0.025 µM final, Par-4 or CaM added from 10x stocks of 0-20 µM; 200 mM NaCl, 200 µM CaCl2, 50 mM Tris pH 7.5; room temperature, ten minutes; average of four trials
Settings: both partners purified

Binder | Kd
B1 | 136 nM
B2 | 57.5 nM
